Biological target: E2-E1 heterodimer of WT Sindbis virus (strain TE12) (Sindbis virus) (UniProt P03316)
Experiment: cryo-EM structure

E2-E1 heterodimer of WT Sindbis virus (strain TE12) (from UniProt P03316 807-1245) (complex)
stoichiometry N: 3
